In IntAct's records for PubMed 22660580:

B1: Interleukin-1 receptor-like 1 (Mus musculus), P14719 (parent)
chain: MIDRQRMGLWALAILTLPMYLTVTEGSKSSWGLENEALIVRCPQRGRSTYPVEWYYSDTNESIPTQKRNRIFVSRDRLKFLPARVEDSGIYACVIRSPNLNKTGYLNVTIHKKPPSCNIPDYLMYSTVRGSDKNFKITCPTIDLYNWTAPVQWFKNCKALQEPRFRAHRSYLFIDNVTHDDEGDYTCQFTHAENGTNYIVTATRSFTVEEKGFSMFPVITNPPYNHTMEVEIGKPASIACSACFGKGSHFLADVLWQINKTVVGNFGEARIQEEEGRNESSSNDMDCLTSVLRITGVTEKDLSLEYDCLALNLHGMIRHTIRLRRKQPIDHRSIYYIVAGCSLLLMFINVLVIVLKVFWIEVALFWRDIVTPYKTRNDGKLYDAYIIYPRVFRGSAAGTHSVEYFVHHTLPDVLENKCGYKLCIYGRDLLPGQDAATVVESSIQNSRRQVFVLAPHMMHSKEFAYEQEIALHSALIQNNSKVILIEMEPLGEASRLQVGDLQDSLQHLVKIQGTIKWREDHVADKQSLSSKFWKHVRYQMPVPERASKTASVAAPLSGKACLDLKHF
partner: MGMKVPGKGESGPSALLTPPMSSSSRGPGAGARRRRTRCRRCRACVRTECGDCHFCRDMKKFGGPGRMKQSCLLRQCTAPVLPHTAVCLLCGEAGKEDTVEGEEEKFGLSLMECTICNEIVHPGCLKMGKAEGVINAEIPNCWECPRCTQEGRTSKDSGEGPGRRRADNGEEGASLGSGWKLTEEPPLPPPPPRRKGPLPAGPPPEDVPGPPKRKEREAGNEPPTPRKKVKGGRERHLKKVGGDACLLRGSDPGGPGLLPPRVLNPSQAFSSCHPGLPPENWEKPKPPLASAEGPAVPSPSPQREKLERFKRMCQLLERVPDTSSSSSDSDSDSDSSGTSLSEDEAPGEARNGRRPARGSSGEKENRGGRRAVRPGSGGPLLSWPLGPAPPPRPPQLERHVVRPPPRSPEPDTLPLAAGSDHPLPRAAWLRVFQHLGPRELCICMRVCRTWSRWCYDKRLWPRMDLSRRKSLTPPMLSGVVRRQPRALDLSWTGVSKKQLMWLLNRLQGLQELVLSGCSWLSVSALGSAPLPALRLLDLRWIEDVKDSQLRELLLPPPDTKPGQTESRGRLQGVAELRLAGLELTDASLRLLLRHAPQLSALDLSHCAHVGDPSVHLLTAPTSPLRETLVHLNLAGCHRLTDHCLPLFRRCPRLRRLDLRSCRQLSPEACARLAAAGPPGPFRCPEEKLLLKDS

Variants of: B1
Conditions: with fxl19_human FBXL19, Q6PCT2

Variant	effect of a mutation on the interaction
MIDRQRMGLWALAILTLPMYLTVTEGSKSSWGLENEALIVRCPQRGRSTYPVEWYYSDTNESIPTQKRNRIFVSRDRLKFLPARVEDSGIYACVIRSPNLNKTGYLNVTIHKKPPSCNIPDYLMYSTVRGSDKNFKITCPTIDLYNWTAPVQWFKNCKALQEPRFRAHRSYLFIDNVTHDDEGDYTCQFTHAENGTNYIVTATRSFTVEEKGFSMFPVITNPPYNHTMEVEIGKPASIACSACFGKGSHFLADVLWQINKTVVGNFGEARIQEEEGRNESSSNDMDCLTSVLRITGVTEKDLSLEYDCLALNLHGMIRHTIRLRRKQPIDHRSIYYIVAGCSLLLMFINVLVIVLKVFWIEVALFWRDIVTPYKTRNDGKLYDAYIIYPRVFRGSAAGTHSVEYFVHHTLPDVLENKCGYKLCIYGRDLLPGQDAATVVESAIQNSRRQVFVLAPHMMHSKEFAYEQEIALHSALIQNNSKVILIEMEPLGEASRLQVGDLQDSLQHLVKIQGTIKWREDHVADKQSLSSKFWKHVRYQMPVPERASKTASVAAPLSGKACLDLKHF [S442A]	decreasing interaction
